Experimental data taken from the Immune Epitope Database (IEDB).

Key:
[1] = molecular target: HLA-A*03:01; assay: IEDB peptide-MHC binding, purified MHC/direct/fluorescence; filed as Kd, often an IC50 or EC50 that approximates it; ≥ and ≤ were set here for values at or beyond the usual limits of such assays; settings: source organism: Bacillus anthracis
[2] = molecular target: HLA-B*48:01; assay: as above; settings: source organism: Bacillus anthracis
[3] = molecular target: HLA-A*01:01; assay: as above; settings: source organism: Bacillus anthracis
[4] = molecular target: HLA-B*07:02; assay: as above; settings: source organism: Bacillus anthracis
[5] = molecular target: HLA-A*26:03; assay: as above
[6] = molecular target: HLA-B*27:05; assay: as above; settings: source organism: Bacillus anthracis
[7] = molecular target: HLA-A*26:02; assay: as above; settings: source organism: Picosynechococcus sp. PCC 7002
[8] = molecular target: HLA-A*31:01; assay: as above; settings: source organism: Bacillus anthracis
[9] = molecular target: HLA-A*02:01; assay: as above; settings: source organism: Bacillus anthracis
[10] = molecular target: HLA-B*15:01; assay: as above; settings: source organism: Bacillus anthracis
[11] = molecular target: HLA-A*11:01; assay: as above; settings: source organism: Bacillus anthracis
[12] = molecular target: HLA-B*08:01; assay: as above; settings: source organism: Picosynechococcus sp. PCC 7002
[13] = molecular target: HLA-B*58:01; assay: as above; settings: source organism: Bacillus anthracis
[14] = molecular target: HLA-A*69:01; assay: as above; settings: source organism: Bacillus anthracis
[15] = molecular target: HLA-B*40:01; assay: as above; settings: source organism: Bacillus anthracis
[16] = molecular target: HLA-B*57:01; assay: as above; settings: source organism: Bacillus anthracis
[17] = molecular target: HLA-B*46:01; assay: as above; settings: source organism: Bacillus anthracis
[18] = molecular target: HLA-B*39:01; assay: as above; settings: source organism: Picosynechococcus sp. PCC 7002
[19] = molecular target: HLA-A*02:03; assay: IEDB peptide-MHC binding, purified MHC/competitive/fluorescence; filed as Kd, often an IC50 or EC50 that approximates it; ≥ and ≤ were set here for values at or beyond the usual limits of such assays
[20] = molecular target: HLA-B*15:17; assay: as above
[21] = molecular target: HLA-A*01:01; assay: as above; settings: source organism: Human immunodeficiency virus 1
[22] = molecular target: HLA-A*30:01; assay: as above; settings: source organism: Human immunodeficiency virus 1
[23] = molecular target: HLA-A*26:02; assay: as above; settings: source organism: Human immunodeficiency virus 1
[24] = molecular target: HLA-A*11:01; assay: as above; settings: source organism: Human immunodeficiency virus 1
[25] = molecular target: HLA-B*57:01; assay: as above; settings: source organism: Human immunodeficiency virus 1
[26] = molecular target: HLA-B*18:01; assay: as above; settings: source organism: Human immunodeficiency virus 1
[27] = molecular target: HLA-A*02:06; assay: as above; settings: source organism: Human immunodeficiency virus 1
[28] = source organism: Bacillus anthracis str. A0488
[29] = source organism: Human immunodeficiency virus 1

DTVLFNAGL showed a Kd [1] of no less than 20 µM, a Kd [2] of no less than 20 µM and a Kd [3] of no less than 20 µM. The Kd [4] was no less than 20 µM, the Kd ([5]; source organism: Picosynechococcus sp. PCC 7002) was 0.054 µM and the Kd [6] was no less than 20 µM. The Kd [7] was 0.041 µM, the Kd [8] was no less than 20 µM and the Kd [9] was no less than 20 µM. The Kd [10] was no less than 20 µM, the Kd [11] was no less than 20 µM and the Kd [12] was no less than 20 µM. For the same sequence, the Kd [13] was no less than 20 µM, the Kd [14] was no more than 0.001 µM and the Kd [15] was no less than 20 µM. For the same sequence, the Kd [16] was no less than 20 µM, the Kd [17] was no less than 20 µM and the Kd [18] was no less than 20 µM. The Kd [19, 28] was no less than 20 µM and the Kd [20, 28] was no less than 20 µM.

In the case of GTIIAHGGL, the Kd ([5]; source organism: Rickettsia prowazekii) is reported as no less than 20 µM.

In the case of KSLFNTIATLY, the Kd [21] is reported as 1.02 µM, the Kd [22] is reported as no less than 20 µM and the Kd [23] is reported as no less than 20 µM. It also gave a Kd [24] of 0.11 µM, a Kd [25] of 0.114 µM and a Kd [19, 29] of 1.9 µM. For the same sequence, the Kd [26] was 0.284 µM, the Kd [20, 29] was 0.0022 µM and the Kd [27] was 0.254 µM.
